In the supplement of paper PMC10065799, “High-throughput profiling of sequence recognition by tyrosine kinases and SH2 domains using bacterial peptide display” (eLife, 2023):

What was measured:
c-Abl (mouse) = test: phosphorylation enrichment, bacterial display (enrichment ratio); higher = better substrate or ligand; peptides without Tyr show the background
Fes = Fes (UniProt P07332); test: as above
Fer (mouse) = test: as above
EPHB1 = EPHB1 (UniProt P54762); test: as above
MERTK = MERTK (UniProt Q12866); test: as above
Hck = Hck (UniProt P08631); test: as above
Sequence of Hck (P08631 whole entry, looked up): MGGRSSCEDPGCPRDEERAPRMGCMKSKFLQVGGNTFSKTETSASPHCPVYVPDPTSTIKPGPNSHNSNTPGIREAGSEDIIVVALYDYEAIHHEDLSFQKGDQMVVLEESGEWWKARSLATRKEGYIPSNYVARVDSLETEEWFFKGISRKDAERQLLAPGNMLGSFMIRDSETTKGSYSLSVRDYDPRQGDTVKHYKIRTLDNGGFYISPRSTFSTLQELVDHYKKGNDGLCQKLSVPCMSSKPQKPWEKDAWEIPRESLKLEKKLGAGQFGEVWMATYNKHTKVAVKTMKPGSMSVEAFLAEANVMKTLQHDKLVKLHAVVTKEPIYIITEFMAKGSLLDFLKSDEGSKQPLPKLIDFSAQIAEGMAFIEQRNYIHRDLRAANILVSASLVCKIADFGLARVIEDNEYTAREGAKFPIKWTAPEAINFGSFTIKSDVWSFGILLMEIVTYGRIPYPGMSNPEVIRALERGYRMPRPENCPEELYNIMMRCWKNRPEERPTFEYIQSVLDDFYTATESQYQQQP

AncSZ = test: as above
Fyn = Fyn (UniProt P06241); test: as above
Sequence of Fyn (P06241 whole entry, looked up): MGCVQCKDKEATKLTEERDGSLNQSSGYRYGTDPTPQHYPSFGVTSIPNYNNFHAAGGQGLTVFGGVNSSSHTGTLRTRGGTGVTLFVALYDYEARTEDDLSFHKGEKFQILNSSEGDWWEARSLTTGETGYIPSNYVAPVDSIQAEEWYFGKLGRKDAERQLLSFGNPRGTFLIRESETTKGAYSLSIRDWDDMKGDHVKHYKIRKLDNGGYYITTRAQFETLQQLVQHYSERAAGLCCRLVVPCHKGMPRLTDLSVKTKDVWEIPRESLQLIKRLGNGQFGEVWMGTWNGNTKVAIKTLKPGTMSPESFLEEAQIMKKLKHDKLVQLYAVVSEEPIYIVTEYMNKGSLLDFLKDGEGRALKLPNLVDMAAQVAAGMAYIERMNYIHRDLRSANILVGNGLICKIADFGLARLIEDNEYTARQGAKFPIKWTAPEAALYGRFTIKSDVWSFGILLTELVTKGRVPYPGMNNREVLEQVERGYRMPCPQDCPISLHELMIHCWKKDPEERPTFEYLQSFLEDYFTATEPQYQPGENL

FGFR1 = FGFR1 (UniProt P11362); test: as above
Sequence of FGFR1 (P11362 whole entry, looked up): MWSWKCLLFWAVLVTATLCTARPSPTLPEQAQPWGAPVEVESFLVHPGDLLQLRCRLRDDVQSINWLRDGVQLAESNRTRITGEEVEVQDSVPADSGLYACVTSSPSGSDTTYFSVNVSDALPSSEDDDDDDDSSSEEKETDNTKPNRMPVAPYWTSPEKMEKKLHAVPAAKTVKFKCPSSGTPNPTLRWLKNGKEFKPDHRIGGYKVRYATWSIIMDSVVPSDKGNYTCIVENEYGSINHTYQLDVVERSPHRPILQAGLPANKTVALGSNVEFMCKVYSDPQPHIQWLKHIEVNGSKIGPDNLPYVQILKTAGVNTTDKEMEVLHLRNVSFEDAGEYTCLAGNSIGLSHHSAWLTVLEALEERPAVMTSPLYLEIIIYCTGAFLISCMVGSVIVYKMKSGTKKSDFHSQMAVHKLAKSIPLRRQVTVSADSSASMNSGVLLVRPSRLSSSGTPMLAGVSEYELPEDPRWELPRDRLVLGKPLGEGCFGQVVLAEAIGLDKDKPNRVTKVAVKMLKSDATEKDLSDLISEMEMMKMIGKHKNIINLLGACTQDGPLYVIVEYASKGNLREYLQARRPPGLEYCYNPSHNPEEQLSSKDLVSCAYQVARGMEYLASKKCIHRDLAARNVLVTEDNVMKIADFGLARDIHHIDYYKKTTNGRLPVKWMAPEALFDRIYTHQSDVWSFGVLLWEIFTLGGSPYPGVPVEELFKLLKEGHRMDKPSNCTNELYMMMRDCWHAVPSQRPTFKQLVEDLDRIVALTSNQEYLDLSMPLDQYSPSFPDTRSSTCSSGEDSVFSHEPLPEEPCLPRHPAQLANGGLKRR

EPHB2 = EPHB2 (UniProt P29323); test: as above
FGFR3 = FGFR3 (UniProt P22607); test: as above
Sequence of FGFR3 (P22607 whole entry, looked up): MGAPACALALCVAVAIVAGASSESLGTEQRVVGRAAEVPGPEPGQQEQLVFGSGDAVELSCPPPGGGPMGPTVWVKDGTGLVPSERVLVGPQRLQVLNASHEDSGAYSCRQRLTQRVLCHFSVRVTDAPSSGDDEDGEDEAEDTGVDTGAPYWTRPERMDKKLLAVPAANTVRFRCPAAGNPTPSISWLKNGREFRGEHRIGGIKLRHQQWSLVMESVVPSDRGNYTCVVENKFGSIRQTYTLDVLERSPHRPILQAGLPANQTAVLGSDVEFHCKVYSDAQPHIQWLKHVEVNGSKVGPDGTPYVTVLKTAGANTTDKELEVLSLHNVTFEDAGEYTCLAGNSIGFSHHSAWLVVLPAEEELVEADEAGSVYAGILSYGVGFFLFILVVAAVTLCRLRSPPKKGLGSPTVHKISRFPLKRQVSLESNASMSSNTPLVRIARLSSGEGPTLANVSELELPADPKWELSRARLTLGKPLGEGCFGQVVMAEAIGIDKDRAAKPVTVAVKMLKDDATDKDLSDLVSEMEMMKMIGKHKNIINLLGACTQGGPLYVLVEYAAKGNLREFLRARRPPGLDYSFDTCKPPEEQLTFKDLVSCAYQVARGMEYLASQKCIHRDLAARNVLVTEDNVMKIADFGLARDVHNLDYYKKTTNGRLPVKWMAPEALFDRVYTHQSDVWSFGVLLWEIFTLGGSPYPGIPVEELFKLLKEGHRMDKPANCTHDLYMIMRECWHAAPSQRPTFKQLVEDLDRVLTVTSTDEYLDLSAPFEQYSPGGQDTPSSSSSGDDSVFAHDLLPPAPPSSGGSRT

c-Src = test: as above
Jak2 = Jak2 (UniProt O60674); test: as above
Sequence of Jak2 (O60674 whole entry, looked up): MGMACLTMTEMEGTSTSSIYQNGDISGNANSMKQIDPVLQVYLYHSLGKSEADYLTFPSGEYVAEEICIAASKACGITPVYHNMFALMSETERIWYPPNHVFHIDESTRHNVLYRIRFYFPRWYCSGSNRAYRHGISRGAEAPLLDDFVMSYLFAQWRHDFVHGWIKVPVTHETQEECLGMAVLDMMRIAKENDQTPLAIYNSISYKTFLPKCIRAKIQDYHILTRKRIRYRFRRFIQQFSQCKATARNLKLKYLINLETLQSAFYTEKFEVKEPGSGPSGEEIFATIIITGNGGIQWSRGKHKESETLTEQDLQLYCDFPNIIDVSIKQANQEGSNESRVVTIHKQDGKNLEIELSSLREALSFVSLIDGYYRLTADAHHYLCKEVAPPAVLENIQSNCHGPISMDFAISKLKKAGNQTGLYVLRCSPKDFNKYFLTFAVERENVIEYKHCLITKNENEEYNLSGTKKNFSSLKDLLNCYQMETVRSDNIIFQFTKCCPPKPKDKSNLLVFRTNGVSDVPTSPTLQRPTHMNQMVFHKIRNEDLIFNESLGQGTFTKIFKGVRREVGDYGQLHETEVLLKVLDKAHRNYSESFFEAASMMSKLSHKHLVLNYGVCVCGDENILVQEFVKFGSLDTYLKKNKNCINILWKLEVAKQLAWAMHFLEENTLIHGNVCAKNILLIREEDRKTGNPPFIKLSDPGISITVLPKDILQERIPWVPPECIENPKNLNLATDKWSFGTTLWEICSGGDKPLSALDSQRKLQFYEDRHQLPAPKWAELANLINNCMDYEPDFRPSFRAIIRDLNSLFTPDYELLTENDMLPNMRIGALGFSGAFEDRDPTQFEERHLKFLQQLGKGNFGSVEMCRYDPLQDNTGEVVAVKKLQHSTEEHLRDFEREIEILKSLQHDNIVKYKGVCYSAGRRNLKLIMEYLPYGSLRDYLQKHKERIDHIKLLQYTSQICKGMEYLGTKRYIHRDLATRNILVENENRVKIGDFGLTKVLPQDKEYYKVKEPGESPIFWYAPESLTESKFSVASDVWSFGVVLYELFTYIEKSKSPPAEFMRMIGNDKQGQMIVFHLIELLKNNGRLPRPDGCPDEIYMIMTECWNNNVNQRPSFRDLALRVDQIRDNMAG

SHP2-C SH2 = test: SH2 binding enrichment of the phosphorylated peptide, bacterial display (enrichment ratio); higher = better substrate or ligand; peptides without Tyr show the background
Grb2 SH2 = Grb2 SH2 (UniProt P62993); test: as above
Sequence of Grb2 SH2 (P62993 whole entry, looked up): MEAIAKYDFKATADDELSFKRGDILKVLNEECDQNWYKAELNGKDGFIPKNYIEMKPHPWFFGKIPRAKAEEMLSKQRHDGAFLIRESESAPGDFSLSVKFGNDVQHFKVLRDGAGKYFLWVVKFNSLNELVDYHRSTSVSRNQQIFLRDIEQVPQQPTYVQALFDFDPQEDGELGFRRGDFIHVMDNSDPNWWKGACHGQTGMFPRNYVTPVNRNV

c-Src SH2 = test: as above
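Wherever SH2 binding enrichment of the phosphorylated peptide, bacterial display is given: peptide library displayed on the E. coli surface as eCPX fusions, selected cells deep-sequenced, score is each peptide's frequency after selection divided by its frequency in the input.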
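Wherever phosphorylation enrichment, bacterial display is given: 11-residue human phosphosite peptides and single-mutation variants displayed on the E. coli surface, counted by deep sequencing, each peptide's frequency after selection divided by its frequency in the unselected input library; frequency after pTyr selection over input frequency; kinase dosed for 20-30% of maximal phosphorylation in three min.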

Sequence of Fes (P07332 whole entry, looked up): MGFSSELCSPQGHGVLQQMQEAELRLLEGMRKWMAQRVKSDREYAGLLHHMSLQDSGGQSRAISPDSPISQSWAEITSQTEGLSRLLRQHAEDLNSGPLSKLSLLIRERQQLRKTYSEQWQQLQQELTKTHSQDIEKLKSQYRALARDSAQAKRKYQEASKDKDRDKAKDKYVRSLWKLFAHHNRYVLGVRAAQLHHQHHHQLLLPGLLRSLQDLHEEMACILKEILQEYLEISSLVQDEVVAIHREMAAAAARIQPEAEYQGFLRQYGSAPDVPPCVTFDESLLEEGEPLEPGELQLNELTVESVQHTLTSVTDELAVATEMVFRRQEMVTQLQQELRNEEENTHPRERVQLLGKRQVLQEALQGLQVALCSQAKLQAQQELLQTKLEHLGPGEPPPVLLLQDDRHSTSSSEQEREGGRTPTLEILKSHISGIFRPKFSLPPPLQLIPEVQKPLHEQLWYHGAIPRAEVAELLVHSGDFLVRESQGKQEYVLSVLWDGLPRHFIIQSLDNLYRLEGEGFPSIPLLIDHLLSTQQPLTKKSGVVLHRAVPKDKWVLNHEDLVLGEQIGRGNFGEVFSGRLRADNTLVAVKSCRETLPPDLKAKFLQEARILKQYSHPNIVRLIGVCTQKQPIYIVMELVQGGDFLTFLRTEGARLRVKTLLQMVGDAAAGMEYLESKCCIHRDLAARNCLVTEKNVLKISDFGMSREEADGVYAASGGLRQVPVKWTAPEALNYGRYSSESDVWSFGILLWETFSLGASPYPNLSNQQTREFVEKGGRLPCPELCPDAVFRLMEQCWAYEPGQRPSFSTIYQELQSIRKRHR

Sequence | phosphorylation enrichment (c-Abl (mouse)) | phosphorylation enrichment (Fes) | phosphorylation enrichment (Fer (mouse)) | phosphorylation enrichment (EPHB1) | phosphorylation enrichment (MERTK) | phosphorylation enrichment (Hck) | phosphorylation enrichment (AncSZ) | phosphorylation enrichment (Fyn) | phosphorylation enrichment (FGFR1) | phosphorylation enrichment (EPHB2) | phosphorylation enrichment (FGFR3) | phosphorylation enrichment (c-Src) | phosphorylation enrichment (Jak2) | SH2 binding enrichment (SHP2-C SH2) | SH2 binding enrichment (Grb2 SH2) | SH2 binding enrichment (c-Src SH2)
IGDENYGEGSS [ACO2_Y665] | 0.882 | 1.18 | 0.518 | 0.511 | 0.586 | 0.59 | 1.25 | 0.529 | 0.533 | 0.606 | 0.738 | 0.522 | 1.39 | 0.86 | 0.814 | 0.449
RVLHNYLVWCV [ECEL1_Y400_R404C] | 0.933 | 1.5 | 0.647 | 1.02 | 0.631 | 0.611 | 1.25 | 0.535 | 0.773 | 0.752 | 1.02 | 0.561 | 1.42 | 0.901 | 0.921 | 0.643
WSISFYPQVIM [CTNS_Y143] | 0.623 | 1.33 | 0.471 | 0.586 | 0.301 | 0.399 | 1.21 | 0.354 | 0.513 | 0.552 | 0.805 | 0.35 | 1.19 | 0.588 | 0.883 | 0.571
LPKEQYLFTKE [AFG3L2_Y614_YF] | 0.551 | 1.49 | 0.817 | 1.2 | 0.499 | 0.996 | 0.83 | 1.59 | 0.623 | 0.471 | 1.51 | 0.406 | 0.532 | 1.06 | 0.911 | 0.762
YDCKWYIPLTD [BCR_Y756] | 0.914 | 1.41 | 0.502 | 0.689 | 1.51 | 0.571 | 1.47 | 0.483 | 0.839 | 0.711 | 0.805 | 0.69 | 1.68 | 0.707 | 0.863 | 0.597
RWGQKHMTAVV [CYBA_Y72_Y72H] | 0.81 | 1.39 | 0.692 | 0.516 | 0.587 | 0.5 | 1.13 | 0.699 | 0.483 | 0.559 | 0.74 | 0.496 | 2.7 | 1.66 | 1.68 | 1.6
ISNATYKEIGL [FLT1_Y199] | 0.467 | 0.605 | 0.471 | 0.352 | 0.304 | 0.485 | 0.462 | 0.447 | 0.446 | 0.498 | 0.438 | 0.366 | 0.442 | 0.587 | 0.823 | 1.04
AKKKMYSRKTK [AGXT_Y231] | 0.478 | 0.505 | 0.443 | 0.437 | 0.457 | 0.496 | 0.595 | 0.431 | 0.546 | 0.385 | 0.476 | 0.42 | 0.455 | 0.488 | 0.638 | 0.409
GEDDVYDSVPG [FGR_opt_2018] | 0.617 | 1.2 | 0.861 | 0.683 | 0.544 | 1.37 | 1.39 | 1.59 | 0.676 | 0.762 | 0.783 | 0.933 | 0.946 | 0.623 | 0.85 | 0.587
FEEVVYQAMEE [TACC3_Y684] | 1.62 | 1.54 | 1.21 | 0.838 | 0.744 | 1.74 | 1.86 | 2.12 | 0.621 | 0.737 | 0.955 | 3.34 | 1.35 | 0.883 | 0.755 | 0.504
VVAHQYSFAPD [TNS3_Y601] | 0.504 | 0.736 | 0.401 | 0.521 | 0.414 | 0.515 | 0.684 | 0.542 | 0.74 | 0.353 | 0.727 | 0.481 | 0.529 | 0.657 | 0.702 | 1.31
NYNPNYCFAGK [ALK_Y1096_D1091N] | 0.803 | 0.879 | 0.597 | 3.98 | 1.1 | 0.433 | 1.26 | 0.57 | 0.563 | 1.27 | 0.642 | 0.564 | 0.856 | 0.878 | 0.868 | 0.55
ENELTYFCCKK [CD59_Y86_YF] | 0.737 | 1.04 | 0.478 | 0.465 | 0.703 | 1.18 | 1.32 | 1.08 | 0.867 | 0.543 | 0.711 | 2.21 | 2.65 | 0.935 | 0.975 | 0.711
NFFDTCIKTCL [IQGAP2_Y1445_Y1445C_YF] | 0.721 | 1.01 | 0.45 | 0.484 | 0.523 | 0.407 | 0.809 | 0.369 | 0.476 | 0.491 | 0.607 | 0.521 | 0.879 | 1.06 | 1.15 | 1.01
ARLEYYENEKK [IRS1_Y47] | 0.808 | 1.01 | 0.491 | 0.686 | 0.571 | 0.482 | 1.08 | 0.595 | 0.592 | 0.506 | 0.733 | 0.528 | 0.849 | 0.888 | 1.34 | 9.04
FGAHNHHPLPV [OAT_Y55_Y55H_YF] | 0.579 | 0.636 | 0.505 | 0.393 | 0.496 | 0.457 | 0.58 | 0.369 | 0.386 | 0.54 | 0.694 | 0.477 | 0.583 | 1.14 | 1.03 | 0.818
AEFGLYGAMVW [VSX2_Y222_R227W_YF] | 0.995 | 1.48 | 2.1 | 0.729 | 1.06 | 2.93 | 1.26 | 3.08 | 0.645 | 1.15 | 0.887 | 2.69 | 1.38 | 0.656 | 0.805 | 0.457
QEIATYRRLPE [KRT16_Y417_L421P] | 0.683 | 0.757 | 0.406 | 0.77 | 0.489 | 0.553 | 0.762 | 0.525 | 0.507 | 0.592 | 0.737 | 0.38 | 0.73 | 0.593 | 0.855 | 0.441
EPAVLYNLKDR [MYH7_Y103] | 0.571 | 0.835 | 0.455 | 0.411 | 0.473 | 0.662 | 0.722 | 0.583 | 0.521 | 0.537 | 0.539 | 0.461 | 0.585 | 0.867 | 0.774 | 0.374
RRGTGYTLPLP [MAGEC3_Y152_S155P] | 0.683 | 0.696 | 0.424 | 0.977 | 0.838 | 0.607 | 0.971 | 0.642 | 0.651 | 0.387 | 0.522 | 0.831 | 1.01 | 0.607 | 0.853 | 0.956
LTSVKYLLSAT [GSDMC_Y26_P23S] | 0.437 | 0.635 | 0.406 | 0.465 | 0.376 | 0.466 | 0.703 | 0.418 | 0.482 | 0.566 | 0.541 | 0.393 | 0.818 | 0.801 | 1.03 | 0.679
ERFSYYGMKAV [SLC15A2_Y61] | 0.578 | 0.767 | 0.386 | 0.477 | 0.9 | 1.37 | 0.993 | 0.8 | 4.94 | 0.658 | 4.31 | 1.4 | 4.66 | 0.85 | 0.877 | 0.978
DGFTDYAEFAK [MCFD2_Y138_I136T_YF] | 0.811 | 1.31 | 0.477 | 0.88 | 0.542 | 0.954 | 1.24 | 0.974 | 0.654 | 0.741 | 0.752 | 1.11 | 1.34 | 0.864 | 0.823 | 0.547
LSSETYVKSFT [F5_Y2149_M2148T_YF] | 0.595 | 1.14 | 0.511 | 0.789 | 0.379 | 0.858 | 0.969 | 0.665 | 0.743 | 1.7 | 0.735 | 0.512 | 1.06 | 0.74 | 0.798 | 0.587
PVQAAYPKVVA [HBB_Y131_Q132P] | 0.501 | 0.804 | 0.261 | 0.902 | 0.504 | 0.335 | 0.706 | 0.42 | 0.322 | 0.542 | 0.503 | 1 | 0.828 | 0.697 | 0.904 | 0.386
NTQRPHYKGGG [TYROBP_Y111_Y111H] | 0.605 | 0.549 | 0.422 | 0.326 | 0.391 | 0.384 | 0.428 | 0.402 | 0.316 | 0.332 | 0.486 | 0.361 | 0.491 | 1.77 | 1.44 | 1.01
GQLIVYAPPEW [CNTN6_Y315_F314V] | 9.23 | 0.985 | 0.619 | 0.574 | 1.37 | 2.22 | 1.02 | 1.81 | 0.513 | 1.66 | 0.665 | 1.75 | 0.932 | 0.767 | 0.984 | 0.53
NFNPNYCFAGK [ALK_Y1096_D1091N_YF] | 0.617 | 0.821 | 0.706 | 2.56 | 0.846 | 0.651 | 1.25 | 0.612 | 0.548 | 1.01 | 0.666 | 0.472 | 0.744 | 0.881 | 0.876 | 0.681
LAGRFYALKSM [CKB_Y174_YF] | 1.18 | 1.61 | 0.46 | 0.677 | 0.666 | 0.509 | 1.86 | 0.463 | 0.479 | 0.573 | 0.991 | 0.461 | 1.32 | 1.11 | 1.23 | 1.12
